Laboratory results from patent US20240287190A1 (THERANOTICS, published 2024).
Changes are numbered by the printed parent chain. Where two headings read alike, the source gives them in different places. Blank lines part the entries; values can stand above or below the binder they belong to.

Key:
[1] = target: T1, recombinant human TGFβ1 protein (R&D Systems, Cat #7754-BH-025/CF) (human, UniProt P01137 279-390); experiment: bridging ELISA on plate-coated TGFβ1, detected with His-tag human B7-H3; paragraph 158 says the mono antibodies are not bound to TGFβ1
T1 construct: Bought protein

[2] = target: T1, recombinant human TGFβ1 protein (R&D …); experiment: as above; remark: listed apart in the source

T1 sequence (P01137 279-390 limits assumed): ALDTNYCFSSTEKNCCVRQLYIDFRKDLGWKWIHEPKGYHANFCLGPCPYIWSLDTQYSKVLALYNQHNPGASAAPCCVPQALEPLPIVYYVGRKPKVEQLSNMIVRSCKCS

binding result [2]: no binding
B4: #9 (mono) B7-H3 mono antibody free of TGFβ binding portion (antibody, human IgG1, N297A, V domains shown)
VH: EVQLLESGGGLVQPGGSLRLSCAASGFTFSSYAMNWVRQAPGKGLEWVSTISGSGGQTYYADSVKGRFTISRDNSKNTLYLQMNSLRAEDTAVYYCARWRSIWAFDYWGQGTLVTVSS
VL: QSVLTQPPSASGTPGQRVTISCSDNNIGSKSVHWYQQLPGTAPKLLIYDNNKRPSGVPDRFSGSKSGTSASLAISGLRSEDEADYYCGTWDDSLSGPVFGGGTKLTVL

binding result [2]: no binding
B5: #8 (mono) B7-H3 mono antibody free of TGFβ binding portion (antibody, human IgG1, N297A, V domains shown)
VH: EVQLLESGGGLVQPGSSLRLSCAASGFTFSSYWISWVRQAPGKGLEWVSEISPSGNTNYNPSLKSRFTISRDNSKNTLYLQMNSLRAEDTAVYYCAREVGDLLDYWGQGTLVTVSS
VL: QSVLTQPPSASGTPGQRVTISCSGSNIGNNYVSWYQQLPGTAPKLLIYQDSKRPSGVPDRFSGSKSGTSASLAISGLRSEDEADYYCLVWDRSSDHFVFGGGTKLTVL

Continued, binder first:

B1: #5 (mono) B7-H3 mono antibody free of TGFβ binding portion (antibody, human IgG1, N297A, V domains shown)
VH: EVQLLESGGGLVQPGGSLRLSCAASGFTFSTYAMSWVRQAPGKGLEWVSAISGSGGSTLYADSVKGRFTISRDNSKNTLYLQMNSLRAEDTAVYYCARGGSATWAFDLWGQGTLVTVSS
VL: QSVLTQPPSASGTPGQRVTISCSGSSSNIGSNYVYWYQQLPGTAPKLLIYRNNQRPSGVPDRFSGSKSGTSASLAISGLRSEDEADYYCGTWDSSLSGVVFGGGTKLTVL
binding result [1]: no binding

B2: #7 (mono) B7-H3 mono antibody free of TGFβ binding portion (antibody, human IgG1, N297A, V domains shown)
VH: EVQLLESGGGLVQPGGSLRLSCAASGFTFSNFWIGWVRQAPGKGLEWVSWINPPGSITSYADSVKGRFTISRDNSKDTLYLQMNSLRAEDTAVYYCAREVGDVLDYWGQGTLVTVSS
VL: QSVLTQPPSASGTPGQRVTISCTGTSSDIGRYNYVSWYQQLPGTAPKLLIYRNTQRPSGVPDRFSGSKSGTSASLAISGLRSEDEADYYCGTWDSSLNAYVFGGGTKLTVL
binding result [2]: no binding

B3: #6 (mono) B7-H3 mono antibody free of TGFβ binding portion (antibody, human IgG1, N297A, V domains shown)
VH: EVQLLESGGGLVQPGGSLRLSCAASGFTFSTYAISWVRQAPGKGLEWVSSIYYSGYTHYNPSLESRFTISRDNSKNTLYLQMNSLRAEDTAVYYCARGYSGWMDVWGQGTLVTVSS
VL: B4 VL with S23G, D24G, D59N, G88A, T89A, S95N, G96V
binding result [2]: no binding
